Assays:
[1] = biological target: T1, ScPif1 (Saccharomyces cerevisiae Pif1, residues 236–753) (Saccharomyces cerevisiae, UniProt P07271); experiment: ATP hydrolysis assay; type: biochemical; conditions: ATPase rate only in supplement
T1 construct: helicase core domain, residues 236-753; N-terminal SUMO tag (pET28a) cleaved by Ulp protease; E. coli BL21; monomer on G4 DNA
T1 sequence (P07271 236-753): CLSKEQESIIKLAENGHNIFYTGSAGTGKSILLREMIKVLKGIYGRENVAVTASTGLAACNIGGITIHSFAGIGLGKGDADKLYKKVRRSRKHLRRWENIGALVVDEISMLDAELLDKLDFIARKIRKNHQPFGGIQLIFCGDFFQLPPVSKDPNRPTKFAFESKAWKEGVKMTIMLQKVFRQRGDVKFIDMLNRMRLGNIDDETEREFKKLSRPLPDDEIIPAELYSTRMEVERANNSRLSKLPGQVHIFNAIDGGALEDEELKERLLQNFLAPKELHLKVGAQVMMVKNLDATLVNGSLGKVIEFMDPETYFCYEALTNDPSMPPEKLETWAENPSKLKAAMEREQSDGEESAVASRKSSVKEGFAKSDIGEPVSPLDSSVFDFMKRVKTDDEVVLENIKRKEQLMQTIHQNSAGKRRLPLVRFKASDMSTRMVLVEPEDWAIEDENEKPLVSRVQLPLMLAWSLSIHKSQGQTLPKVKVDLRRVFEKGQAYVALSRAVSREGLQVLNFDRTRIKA

ScPif1 = biological target: T2, ScPif1 (Saccharomyces cerevisiae, UniProt P07271 236-753); experiment: fluorescence anisotropy; no nucleotide; Fluorescence anisotropy: 20 mM HEPES-NaOH pH 7.5, 100 mM NaCl, 10% glycerol, 20 C, 10 nM FAM-DNA, 30 min, quadratic fit; conditions: protein: recombinant, tags: N-terminal SUMO tag (Ni-NTA purified), cleaved by Ulp protease, label: 3' 6-FAM
T2 sequence: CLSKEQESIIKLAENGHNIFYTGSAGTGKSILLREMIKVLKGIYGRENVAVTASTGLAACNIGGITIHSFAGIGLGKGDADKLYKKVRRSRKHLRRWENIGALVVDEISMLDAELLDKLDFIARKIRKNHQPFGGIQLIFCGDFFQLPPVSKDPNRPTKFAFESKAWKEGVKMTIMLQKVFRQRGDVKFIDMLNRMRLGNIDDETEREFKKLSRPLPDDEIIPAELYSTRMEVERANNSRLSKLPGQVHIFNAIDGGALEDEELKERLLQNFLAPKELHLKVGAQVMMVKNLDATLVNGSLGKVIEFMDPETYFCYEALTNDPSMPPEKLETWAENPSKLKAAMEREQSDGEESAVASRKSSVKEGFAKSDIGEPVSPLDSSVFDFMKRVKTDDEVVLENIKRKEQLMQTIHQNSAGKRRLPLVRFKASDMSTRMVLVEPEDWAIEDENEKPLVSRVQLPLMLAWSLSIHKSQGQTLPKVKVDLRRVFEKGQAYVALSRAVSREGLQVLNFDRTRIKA

ScPif1 R324W = biological target: T3, ScPif1 R324W (Saccharomyces cerevisiae, UniProt P07271 236-753, R324W); experiment: as above; conditions: protein: recombinant; tags: N-terminal SUMO tag, cleaved; label: 3' 6-FAM; parallel intramolecular G4
T3 sequence: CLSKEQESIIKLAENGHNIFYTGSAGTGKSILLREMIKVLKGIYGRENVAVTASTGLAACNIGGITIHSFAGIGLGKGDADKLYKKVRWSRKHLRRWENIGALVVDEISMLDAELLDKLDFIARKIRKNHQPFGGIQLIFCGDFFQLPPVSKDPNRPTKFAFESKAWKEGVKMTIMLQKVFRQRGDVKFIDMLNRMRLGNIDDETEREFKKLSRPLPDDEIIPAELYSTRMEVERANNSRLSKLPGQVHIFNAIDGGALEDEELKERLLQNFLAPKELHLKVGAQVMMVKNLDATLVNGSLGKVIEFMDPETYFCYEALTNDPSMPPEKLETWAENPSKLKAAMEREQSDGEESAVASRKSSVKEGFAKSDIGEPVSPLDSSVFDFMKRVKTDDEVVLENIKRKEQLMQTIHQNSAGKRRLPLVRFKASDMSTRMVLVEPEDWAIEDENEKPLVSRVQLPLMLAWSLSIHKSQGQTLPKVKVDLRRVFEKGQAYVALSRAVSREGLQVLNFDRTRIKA

ScPif1 R324E = biological target: T4, ScPif1 R324E (Saccharomyces cerevisiae, UniProt P07271 236-753, R324E); experiment: as above; conditions: protein: recombinant; tags: N-terminal SUMO tag, cleaved; label: 3' 6-FAM; parallel intramolecular G4
T4 sequence: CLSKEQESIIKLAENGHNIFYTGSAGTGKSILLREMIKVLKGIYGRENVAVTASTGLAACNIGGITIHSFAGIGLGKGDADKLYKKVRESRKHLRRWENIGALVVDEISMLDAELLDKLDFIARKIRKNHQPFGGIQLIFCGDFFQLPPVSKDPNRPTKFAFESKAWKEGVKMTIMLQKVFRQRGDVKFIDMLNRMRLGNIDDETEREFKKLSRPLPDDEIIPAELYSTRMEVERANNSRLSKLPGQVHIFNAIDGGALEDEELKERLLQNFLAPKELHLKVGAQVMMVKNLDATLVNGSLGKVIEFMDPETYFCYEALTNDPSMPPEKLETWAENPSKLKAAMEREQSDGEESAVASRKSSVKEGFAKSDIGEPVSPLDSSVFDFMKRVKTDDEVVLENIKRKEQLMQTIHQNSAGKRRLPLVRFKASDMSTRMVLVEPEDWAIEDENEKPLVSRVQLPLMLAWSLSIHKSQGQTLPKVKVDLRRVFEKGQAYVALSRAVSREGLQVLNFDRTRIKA

ScPif1 R324Y = biological target: T5, ScPif1 R324Y (Saccharomyces cerevisiae, UniProt P07271 236-753, R324Y); experiment: as above; conditions: protein: recombinant; tags: N-terminal SUMO tag, cleaved; label: 3' 6-FAM; parallel intramolecular G4
T5 sequence: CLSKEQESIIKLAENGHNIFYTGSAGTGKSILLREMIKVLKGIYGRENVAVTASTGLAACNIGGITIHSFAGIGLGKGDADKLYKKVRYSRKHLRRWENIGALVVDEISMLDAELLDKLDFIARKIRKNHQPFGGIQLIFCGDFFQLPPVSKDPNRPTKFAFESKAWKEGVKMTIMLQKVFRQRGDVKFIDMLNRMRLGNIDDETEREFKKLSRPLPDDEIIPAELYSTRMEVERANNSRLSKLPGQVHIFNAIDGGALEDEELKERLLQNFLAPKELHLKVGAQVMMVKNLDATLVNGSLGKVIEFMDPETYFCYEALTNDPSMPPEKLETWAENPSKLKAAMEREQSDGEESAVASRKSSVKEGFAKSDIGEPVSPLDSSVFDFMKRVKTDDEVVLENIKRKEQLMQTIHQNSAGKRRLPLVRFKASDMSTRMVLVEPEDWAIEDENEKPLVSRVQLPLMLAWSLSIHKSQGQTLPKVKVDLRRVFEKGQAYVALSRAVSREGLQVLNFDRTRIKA

ScPif1 R324A = biological target: T6, ScPif1 R324A (Saccharomyces cerevisiae, UniProt P07271 236-753, R324A); experiment: as above; conditions: protein: recombinant; tags: N-terminal SUMO tag, cleaved; label: 3' 6-FAM; parallel intramolecular G4
T6 sequence: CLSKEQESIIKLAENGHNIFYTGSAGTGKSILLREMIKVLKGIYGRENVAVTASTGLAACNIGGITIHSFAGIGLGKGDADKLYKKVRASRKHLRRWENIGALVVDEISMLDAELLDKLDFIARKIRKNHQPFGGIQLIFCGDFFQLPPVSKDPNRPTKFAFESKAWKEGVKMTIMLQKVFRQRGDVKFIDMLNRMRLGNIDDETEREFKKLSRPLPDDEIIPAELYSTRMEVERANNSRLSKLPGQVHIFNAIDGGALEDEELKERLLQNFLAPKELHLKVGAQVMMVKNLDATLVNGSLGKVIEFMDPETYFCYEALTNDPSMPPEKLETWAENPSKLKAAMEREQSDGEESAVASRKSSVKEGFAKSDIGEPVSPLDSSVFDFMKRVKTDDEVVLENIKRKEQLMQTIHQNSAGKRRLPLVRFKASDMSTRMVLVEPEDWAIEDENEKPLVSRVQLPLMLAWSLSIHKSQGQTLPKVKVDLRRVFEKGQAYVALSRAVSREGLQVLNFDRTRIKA

In the case of `Nc1ncnc2c1ncn2[C@@H]1O[C@H](COP(=O)(O)OP(=O)(O)OP(=O)(O)O)[C@@H](O)[C@H]1O` [ATP], the ATP hydrolysis assay [1] is reported as “they hydrolyze ATP at a similar rate to WT ScPif1”.

Molecule TTTTTTT (ssDNA) [T7-FAM] has a Kd (ScPif1; single strand) of 12.8 nM.

Molecule TTTTTTTTGGTGGTGGTTGTTGTGGTGGTGGTGGT (structured_DNA) [T7-AT11-FAM] has a Kd (ScPif1; parallel intramolecular G4 with 5' ssDNA tail) of 7.23 nM.

TGGTGGTGGTTGTTGTGGTGGTGGTGGT (structured_DNA) [AT11-FAM] showed a Kd (ScPif1 R324W) of 9.57 nM, a Kd (ScPif1; parallel intramolecular G4) of 11.2 nM and a Kd (ScPif1 R324E) of 25.6 nM. It also gave a Kd (ScPif1 R324Y) of 10.9 nM and a Kd (ScPif1 R324A) of 11.8 nM.
